Positions count from the first letter of the chain named. Each block holds one binder with its values, some of them ahead of it.
What was measured:
human TREM2 on cells = biological target: T1, human TREM2 on cells (human, UniProt Q9NZC2 19-230); assay: cell-based or functional assay
T1 sequence: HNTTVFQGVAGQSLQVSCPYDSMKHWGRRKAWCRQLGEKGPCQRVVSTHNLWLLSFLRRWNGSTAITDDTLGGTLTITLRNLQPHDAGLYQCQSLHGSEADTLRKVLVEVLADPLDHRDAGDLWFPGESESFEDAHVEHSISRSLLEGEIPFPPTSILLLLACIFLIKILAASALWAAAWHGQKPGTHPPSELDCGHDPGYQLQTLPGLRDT

[1] = biological target: T2, soluble human TREM2 protein (TREM2 ECD-huIgG1 Fc fusion protein) (human, UniProt Q9NZC2 19-174, biotinylated); assay: ELISA, hybridoma supernatant on captured biotinylated TREM2 ECD-Fc
T2 construct: also called biotinylated soluble human TREM2 protein
T2 sequence: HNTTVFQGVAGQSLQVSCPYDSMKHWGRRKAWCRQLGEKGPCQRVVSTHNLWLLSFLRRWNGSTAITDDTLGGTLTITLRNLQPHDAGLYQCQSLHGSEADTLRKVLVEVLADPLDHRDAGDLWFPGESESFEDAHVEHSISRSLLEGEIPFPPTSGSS
Experimental: Exhausted hybridoma supernatants were tested for binding to human TREM2 by ELISA. Briefly, neutravidin plates were generated by incubating a 384 well Corning Assay Plate 3702 with neutravidin (Thermo 3100B) at 10 μg/mL (40 μL/well) in 1× PBS at 4° C. overnight. The plates were washed with 1× PBS using a Biotek plate washer and then blocked with 1% milk/1× PBS (90 μL/well) at room temperature (RT) for 30 minutes. The plates were then washed again with 1× PBS using the plate washer. […] The plates were then incubated at RT for 1 hour to immobilize the TREM2 protein to the wells of the plates. Following the incubation, the plates were again washed with 1× PBS using the plate washer. 10 μL of each hybridoma supernatant to be tested and 40 μL of 1% milk/1× PBS (1:5 dilution) were added to each well of the plates and incubated at RT for 1 hour. Again, the plates were washed with 1× PBS using the plate washer. […] After the plates were washed with 1× PBS using the plate washer, 40 μL/well of TMB substrate (Neogen, lot #150114) was added to the plates and the plates were incubated at RT for 30 minutes. The reaction was quenched with 1N hydrochloric acid (40 uL/well) following the incubation period. OD readings at 450 nm were obtained with a plate reader.

human TREM2 [2] = biological target: T3, human TREM2 (human, UniProt Q9NZC2 19-174, limits assumed); assay: yeast-displayed Fab FACS, 1st screen 10 nM
T3 sequence: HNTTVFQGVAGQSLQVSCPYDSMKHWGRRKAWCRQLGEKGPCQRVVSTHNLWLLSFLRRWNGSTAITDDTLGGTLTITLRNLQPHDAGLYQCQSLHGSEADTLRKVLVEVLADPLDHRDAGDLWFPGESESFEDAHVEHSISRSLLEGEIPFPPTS

human TREM2 [3] = biological target: T3, human TREM2; assay: yeast-displayed Fab FACS, 2nd screen 2 nM
human TREM2 [4] = biological target: T3, human TREM2; assay: yeast-displayed Fab FACS, 2nd screen 10 nM

B1: 12G10 (antibody, human IgG2, V domains shown)
VH: EVQLLESGGGLVQPGGSLRLSCAASGFTFSSYAMSWVRQAPGKGLEWVSAIGGGGVSTYCADSVKGRFTISRDNSKNTLYLQMNSLRAEDTAVYYCAKFYIAVAGSHFDYWGQGTLVTVSS
VL: QAVPTQPSSLSASPGVLASLTCTLRSGINVGTYRIYWYQQKPGSPPQYLLRYKSDSDKQQGSGVPSRFSGSKDASANAGILLISGLQSEDEADYYCMIWYSSAVVFGGGTKLTVL
- pSyk EC50 (human TREM2 on cells): 0.4 nM

B2: 14C12 (antibody, human IgG2, V domains shown)
VH: EVQLVQSGAEVKKPGESLMISCKGSGYSFTSYWIGWVRQMPGKGLEWMGIIYPGDSDTRYSPSFQGQVTISADKSISTAYLQWSSLKASDTAMYFCARRRQGIWGDALDFWGQGTLVTVSS
VL: EIVMTQSPATLSVSPGERATLSCRASQSVSSNLAWFQQKPGQAPRLLIYGASTRATGIPARFSVSGSGTEFTLTISSLQSEDFAVYYCLQDNNWPPTFGPGTKVDIK
notes: human IgG2 from hybridoma
- pSyk EC50 (human TREM2 on cells): 0.4 nM
- OD 450 [1]: 0.71 OD450

B3: V41 (Fab, V domains shown)
VH: EVQLVQSGAEVKKPGESLKISCKGSGYSFTSYWIAWVRQMPGKGLEWMGTIYPGDSDTRYSPSFQGQVTISADKSISTAYLQWSSLKASDTAMYFCARQRTFYYDSSDYFDYWGQGTLVTVSS
VL: DIQMTQSPSSVSASVGDRVTITCRASQGISSWLAWYQQKPGKAPKLLIYAASSLQNGVPSRFSGSGSGTDFTLTISSLQPEDFATYFCQQADSFPRTFGQGTKLEIK
- binding signal fold over 6E7 parental (human TREM2 [2]): 1.74 fold
- binding signal fold over 6E7 parental (human TREM2 [3]): 0.58 fold
- binding signal fold over 6E7 parental (human TREM2 [4]): 1.72 fold

B4: V61 (Fab, V domains shown)
VH: B3 VH with T30S, T50I, S61N, Q99G
VL: B3 VL with Q55V, F94L
- binding signal fold over 6E7 parental (human TREM2 [2]): 5.08 fold
- binding signal fold over 6E7 parental (human TREM2 [3]): 3.63 fold
- binding signal fold over 6E7 parental (human TREM2 [4]): 5.22 fold

B6: V63 (Fab, V domains shown)
VH: B3 VH with T30R, T50I, Q99S
VL: B3 VL with N56R, S93R
- binding signal fold over 6E7 parental (human TREM2 [2]): 3.76 fold
- binding signal fold over 6E7 parental (human TREM2 [3]): 4.91 fold
- binding signal fold over 6E7 parental (human TREM2 [4]): 3.71 fold

B7: V51 (Fab, V domains shown)
VH: B3 VH with T50I, T58V, Q99G, Y112N
VL: B3 VL with L54R
- binding signal fold over 6E7 parental (human TREM2 [2]): 2.81 fold
- binding signal fold over 6E7 parental (human TREM2 [3]): 1.83 fold
- binding signal fold over 6E7 parental (human TREM2 [4]): 3.18 fold

B9: V52 (Fab, V domains shown)
VH: B3 VH with T30E, T50I, Q99G
VL: B3 VL with N56R, S93R
- binding signal fold over 6E7 parental (human TREM2 [2]): 3 fold
- binding signal fold over 6E7 parental (human TREM2 [3]): 1.78 fold
- binding signal fold over 6E7 parental (human TREM2 [4]): 3.09 fold

B14: V49 (Fab, V domains shown)
VH: B3 VH with T30N, Y60L, Q99S
VL: B3 VL with L54R, F94Y
- binding signal fold over 6E7 parental (human TREM2 [2]): 6.51 fold
- binding signal fold over 6E7 parental (human TREM2 [3]): 5.02 fold
- binding signal fold over 6E7 parental (human TREM2 [4]): 6.58 fold

B15: V53 (Fab, V domains shown)
VH: B3 VH with T50I, S63H
VL: B3 VL
- binding signal fold over 6E7 parental (human TREM2 [2]): 1.25 fold
- binding signal fold over 6E7 parental (human TREM2 [3]): 0.66 fold
- binding signal fold over 6E7 parental (human TREM2 [4]): 1.17 fold

B16: V62 (Fab, V domains shown)
VH: B3 VH with T30G, T50I, S61A, D108G
VL: B3 VL with N56R, Q89G
- binding signal fold over 6E7 parental (human TREM2 [2]): 2.49 fold
- binding signal fold over 6E7 parental (human TREM2 [3]): 1.87 fold
- binding signal fold over 6E7 parental (human TREM2 [4]): 2.89 fold

B18: V60 (Fab, V domains shown)
VH: B3 VH with S28H, T50I, T58V, F110S
VL: B3 VL with N56R, Q89G
- binding signal fold over 6E7 parental (human TREM2 [2]): 3.26 fold
- binding signal fold over 6E7 parental (human TREM2 [3]): 3.35 fold
- binding signal fold over 6E7 parental (human TREM2 [4]): 3.63 fold

B20: V73 (Fab, V domains shown)
VH: B3 VH with T30G, T50I, S63G, Q99G
VL: B3 VL with L54R, F94Y
- binding signal fold over 6E7 parental (human TREM2 [2]): 5.12 fold
- binding signal fold over 6E7 parental (human TREM2 [3]): 4.17 fold
- binding signal fold over 6E7 parental (human TREM2 [4]): 5.44 fold

B21: V48 (Fab, V domains shown)
VH: B3 VH with T30G, T50I, T58V, Q99M
VL: B3 VL with N56T, F94L
- binding signal fold over 6E7 parental (human TREM2 [2]): 2.42 fold
- binding signal fold over 6E7 parental (human TREM2 [3]): 2.3 fold
- binding signal fold over 6E7 parental (human TREM2 [4]): 2.54 fold

B23: V72 (Fab, V domains shown)
VH: B3 VH with A35G, T50I, Q99G
VL: B3 VL with Q55V, F94Y
- binding signal fold over 6E7 parental (human TREM2 [2]): 3.64 fold
- binding signal fold over 6E7 parental (human TREM2 [3]): 2.5 fold
- binding signal fold over 6E7 parental (human TREM2 [4]): 4.01 fold

B24: V74 (Fab, V domains shown)
VH: B3 VH with T30A, T50I, T58V, Q99G
VL: B3 VL with N56L
- binding signal fold over 6E7 parental (human TREM2 [2]): 3.94 fold
- binding signal fold over 6E7 parental (human TREM2 [3]): 2.54 fold
- binding signal fold over 6E7 parental (human TREM2 [4]): 4.01 fold

Now from value to binder:

- binding signal fold over 6E7 parental (human TREM2 [2]): 1.33 fold
- binding signal fold over 6E7 parental (human TREM2 [3]): 0.94 fold
- binding signal fold over 6E7 parental (human TREM2 [4]): 1.46 fold
B5: V89 (Fab, V domains shown)
VH: B3 VH with T50I
VL: B3 VL with F94H

- binding signal fold over 6E7 parental (human TREM2 [2]): 4.8 fold
- binding signal fold over 6E7 parental (human TREM2 [3]): 5.17 fold
- binding signal fold over 6E7 parental (human TREM2 [4]): 5.02 fold
B8: V86 (Fab, V domains shown)
VH: B3 VH with T30G, I34L, T50I, Q65E, Q99S
VL: B3 VL with L54R

- binding signal fold over 6E7 parental (human TREM2 [2]): 4.64 fold
- binding signal fold over 6E7 parental (human TREM2 [3]): 3.74 fold
- binding signal fold over 6E7 parental (human TREM2 [4]): 4.52 fold
B10: V75 (Fab, V domains shown)
VH: B3 VH with T50I, Q99G
VL: B3 VL with N56A, F94Y

- binding signal fold over 6E7 parental (human TREM2 [2]): 4.57 fold
- binding signal fold over 6E7 parental (human TREM2 [3]): 4.34 fold
- binding signal fold over 6E7 parental (human TREM2 [4]): 4.93 fold
B11: V76 (Fab, V domains shown)
VH: B3 VH with T30G, T50I, S63E, F110S
VL: B3 VL with N56K, T69R

- binding signal fold over 6E7 parental (human TREM2 [2]): 4.92 fold
- binding signal fold over 6E7 parental (human TREM2 [3]): 5.57 fold
- binding signal fold over 6E7 parental (human TREM2 [4]): 5.3 fold
B12: V88 (Fab, V domains shown)
VH: B3 VH with T30G, T50I
VL: B3 VL with S53R, N56R, F94S

- binding signal fold over 6E7 parental (human TREM2 [2]): 5.41 fold
- binding signal fold over 6E7 parental (human TREM2 [3]): 5.41 fold
- binding signal fold over 6E7 parental (human TREM2 [4]): 5.37 fold
B13: V85 (Fab, V domains shown)
VH: B3 VH with T30R, Q99S
VL: B3 VL with L54R

- binding signal fold over 6E7 parental (human TREM2 [2]): 1.43 fold
- binding signal fold over 6E7 parental (human TREM2 [3]): 0.83 fold
- binding signal fold over 6E7 parental (human TREM2 [4]): 1.38 fold
B17: V77 (Fab, V domains shown)
VH: B3 VH with T50I
VL: B3 VL with L54R

- binding signal fold over 6E7 parental (human TREM2 [2]): 3.84 fold
- binding signal fold over 6E7 parental (human TREM2 [3]): 4.86 fold
- binding signal fold over 6E7 parental (human TREM2 [4]): 3.93 fold
B19: V87 (Fab, V domains shown)
VH: B3 VH with T30R, T50I, T58V, S63D, Q99S
VL: B3 VL with N56W

- binding signal fold over 6E7 parental (human TREM2 [2]): 1.44 fold
- binding signal fold over 6E7 parental (human TREM2 [3]): 1.45 fold
- binding signal fold over 6E7 parental (human TREM2 [4]): 1.62 fold
B22: V84 (Fab, V domains shown)
VH: B3 VH with S28G, T50I, F110S
VL: B3 VL with A50G

Reference: patent US20220204611A1 (Amgen, published 2022)
